In patent US20160046707A1:
Positions count from the first letter of the chain named. Each block holds one binder with its values, some of them ahead of it.

Legend:
[1] = target: recombinant human CCL20 (R&D Systems, #360-MP-025/CF) (human) (UniProt P78556); assay: SPR (Biacore): antibody captured on anti-human Fc, 100 nM chemokine injected; ratio = chemokine binding level over antibody capture level
[2] = target: recombinant human CCL20 (R&D Systems, #360-MP-025/CF) (human) (UniProt P78556); assay: SPR (Biacore), antibody captured by anti-human Fc, human CCL20 injected (monovalent format), 1:1 Langmuir, average of two experiments
[3] = target: recombinant human CCL20 (R&D Systems, #360-MP-025/CF) (human) (UniProt P78556); assay: cell-based or functional assay

recombinant human CCL20 (R&D Systems, #360-MP-025/CF) (human), sequence (P78556 other isoform, or with tags, fused parts or gaps limits assumed): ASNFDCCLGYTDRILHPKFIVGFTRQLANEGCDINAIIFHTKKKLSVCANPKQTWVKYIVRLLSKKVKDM

- ReqCk/ReqAb ratio [1]: 0.143
- Kd [2]: 0.07 nM
- koff [2]: 0.00117 s⁻¹
- kon [2]: 1.66e+07 M⁻¹ s⁻¹
- IC50, chemotaxis assay, Assay-1 [3]: 0.65 nM
- IC50, chemotaxis assay, Assay-2 [3]: 1.09 nM
- IC50, chemotaxis assay, Assay-3 [3]: 1.3 nM
- IC50, chemotaxis assay, Average [3]: 1.01 nM
- IC90, chemotaxis assay, Assay-1 [3]: 3.55 nM
- IC90, chemotaxis assay, Assay-2 [3]: 3.35 nM
- IC90, chemotaxis assay, Assay-3 [3]: 6.79 nM
- IC90, chemotaxis assay, Average [3]: 4.56 nM
- IC95, chemotaxis assay, Assay-1 [3]: 7.59 nM
- IC95, chemotaxis assay, Assay-2 [3]: 5.41 nM
- IC95, chemotaxis assay, Assay-3 [3]: 13.9 nM
- IC95, chemotaxis assay, Average [3]: 8.97 nM
B1: humanized anti-human CCL20 antibody 36LK3/36HC2 (antibody, human IgG1, kappa, V domains shown)
VH: QVQLVQSGAEVKKPGASVKVSCKASGYTFTNYWMHWVRQAPGQGLEWMGVIDPSDSYTTYAQKFQGRVTMTVDTSTSTVYMELSSLRSEDTAVYYCARGNYGVDYAMDYWGQGTLVTVSS
VL: DIQMTQSPSSLSASVGDRVTITCGASENIYGALNWYQRKPGKAPKLLIYGATNLADGVPSRFSGSGSGRDYTLTISSLQPEDFATYYCQNVLITPYTFGQGTKLEIKR

- ReqCk/ReqAb ratio [1]: 0.156
- Kd [2]: 0.044 nM
- koff [2]: 0.00061 s⁻¹
- kon [2]: 1.45e+07 M⁻¹ s⁻¹
- IC50, chemotaxis assay, Assay-1 [3]: 0.9 nM
- IC50, chemotaxis assay, Assay-2 [3]: 1.26 nM
- IC50, chemotaxis assay, Assay-3 [3]: 1.2 nM
- IC50, chemotaxis assay, Average [3]: 1.12 nM
- IC90, chemotaxis assay, Assay-1 [3]: 4.64 nM
- IC90, chemotaxis assay, Assay-2 [3]: 5.82 nM
- IC90, chemotaxis assay, Assay-3 [3]: 5.3 nM
- IC90, chemotaxis assay, Average [3]: 5.25 nM
- IC95, chemotaxis assay, Assay-1 [3]: 11.8 nM
- IC95, chemotaxis assay, Assay-2 [3]: > 66.8 nM
- IC95, chemotaxis assay, Assay-3 [3]: 10.3 nM
B2: humanized anti-human CCL20 antibody 36LC3/36HC2 (antibody, human IgG1, kappa, V domains shown)
VH: B1 VH
VL: B1 VL with G24R, R38Q, D70Q, T72S, Q100G

- IC50, chemotaxis of human CCR6-transduced B300.19 cells toward 10 nM human CCL20 [3]: 1.7 nM
- IC90, chemotaxis of human CCR6-transduced B300.19 cells toward 10 nM human CCL20 [3]: 3.94 nM
- IC95, chemotaxis of human CCR6-transduced B300.19 cells toward 10 nM human CCL20 [3]: 7.68 nM
B3: mouse anti-human CCL20 monoclonal antibody 36F7C10 (antibody, V domains shown)
VH: QVQLQQPGAELVKPGASVKMSCKASGYTFTNYWMHWVKQRPGQGLEWIGVIDPSDSYTTYNQKFKGKATLTVDTSSSTAYMQLSSLTSEDSAVYYCTRGNYGVDYAMDYWGQGTSVTVSS
VL: DIQMTQSPASLSASVGETVTITCGASENIYGALNWYQRKQGKSPQLLIYGATNLADGMSSRFSGSGSGRQYSLKISSLHPDDVATYYCQNVLITPYTFGGGTKLEIK

- ReqCk/ReqAb ratio [1]: 0.153
- IC50, chemotaxis of human CCR6-transduced B300.19 cells toward 10 nM human CCL20 [3]: 1.44 nM
- IC90, chemotaxis of human CCR6-transduced B300.19 cells toward 10 nM human CCL20 [3]: 3.51 nM
- IC95, chemotaxis of human CCR6-transduced B300.19 cells toward 10 nM human CCL20 [3]: 5.48 nM
B4: chimeric 36F7C10 antibody (36F7C10-hFc) (antibody, V domains shown)
VH: B3 VH
VL: B3 VL
